# The supplement of paper PMC10567573
# B1: GNAI1 (parent)
# chain: WIHCFEGVTAIIFCVALSDYDLVL
# B2: PDS5B (parent)
# chain: ITYPPGVKEISDKISKEEMVRRLK
# Variants of: B1
# Assay: protein stability index of a GFP-peptide fusion (GPS, HEK-293T) (PSI 1-6); higher = more stable
# Conditions: c terminus: a fixed tail appended
# 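Further: lentivirally expressed fusions sorted by FACS into six bins by GFP to DsRed ratio, PSI derived from sequencing read proportions per bin multiplied by bin number.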
row,Variant,protein stability index
1,WIHCFEEVTAIIFCVALSDYDLVL,3.19
2,WIHCFETVTAIIFCVALSDYDLVL,2.51
3,WIHCFEGVAAIIFCVALSDYDLVL,2.01
4,WIHCFEGVWAIIFCVALSDYDLVL,3.23
5,WIHCFEGVYAIIFCVALSDYDLVL,2.83
6,WIHCFEGVFAIIFCVALSDYDLVL,3.82
7,WIHCFVGVTAIIFCVALSDYDLVL,2.97
8,WIHCFYGVTAIIFCVALSDYDLVL,2.48
9,WIHCFMGVTAIIFCVALSDYDLVL,2.6
10,WIHCFNGVTAIIFCVALSDYDLVL,3.63
11,WIHCFKGVTAIIFCVALSDYDLVL,1.26
12,WIHCFEGVTAIIFCHALSDYDLVL,3.01
13,WIHCFEGVTAIIFCTALSDYDLVL,2.03
14,WIHCFEGVTAIIFCIALSDYDLVL,3.06
15,WIHCFEGVTAIIFCNALSDYDLVL,3.17
16,WIHHFEGVTAIIFCVALSDYDLVL,2.22
17,WIHSFEGVTAIIFCVALSDYDLVL,3.29
18,WIHNFEGVTAIIFCVALSDYDLVL,3.76
19,WIHCFEGVTAIIFCVALTDYDLVL,2.95
20,WSHCFEGVTAIIFCVALSDYDLVL,2.82
21,WDHCFEGVTAIIFCVALSDYDLVL,2.21
22,WIHCFEGVTAIIFCVGLSDYDLVL,3.14

row,Variant,protein stability index
1,WIHCFEGVTAIIFCVSLSDYDLVL,3.92
2,WIHCFEGVTAIIFCVKLSDYDLVL,4.07
3,WIHCFEGVTAIIFCVTLSDYDLVL,3.18
4,WIHCFEGVTAIIFCVAPSDYDLVL,3.56
5,WIHCFEGVTAIIFCVANSDYDLVL,2.67
6,WIHCFEGVTAIIFCVAFSDYDLVL,4.72
7,WIHCFEGVTADIFCVALSDYDLVL,3.47
8,WIHCFEGVTAFIFCVALSDYDLVL,3.26
9,WIHCFEGVTAEIFCVALSDYDLVL,2.67
10,WIHCFEGVTAIIFMVALSDYDLVL,1.93
11,WIHCFEGVTAIIFQVALSDYDLVL,2.43
12,WIHCFEGVTAIIFCVALSDQDLVL,4.16
13,WIHCFEGVTAIIFCVALSDVDLVL,2.86
14,WIHCFEGVTAIISCVALSDYDLVL,2.34
15,WIHCFEGVTAIIVCVALSDYDLVL,2.83
16,WIHCTEGVTAIIFCVALSDYDLVL,2.87
17,WIHCKEGVTAIIFCVALSDYDLVL,2.11
18,WIHCSEGVTAIIFCVALSDYDLVL,2.75
19,WIHCFEGVTAIIFCVALSTYDLVL,4.11
20,WIHCFEGVTAIIFCVALSYYDLVL,3.06
21,WIHCFEGVTAIIFCVALSDYDLYL,3.15
22,WIHCFEGVTAIIFCVALSDYDLCL,1.55

row,Variant,protein stability index
1,WIHCFEGVTAIIFCVALSDYDLVH,3.37
2,WIHCFEGVTAIIFCVALSDYDLVV,2.12
3,WIHCFEGVTAIIFCVALSDYALVL,3.49
4,WIHCFEGVTAIIFCVALSDYYLVL,2.41
5,WIHCFEGVTAIIFCVALSDYGLVL,2.37
6,WIHCFEGVTAIIFCVALSDYRLVL,2.59
7,WIHCFEGQTAIIFCVALSDYDLVL,3.32
8,WIHCFEGVTAIIFCVALSDYDAVL,1.82
9,WIHCFEGVTSIIFCVALSDYDLVL,1.82
10,WIHCFEGVTTIIFCVALSDYDLVL,2.48
11,WIHCFEGVTQIIFCVALSDYDLVL,2.09
12,WIHCFEGVTYIIFCVALSDYDLVL,2.76
13,WIHCFEGVTAIPFCVALSDYDLVL,4.32
14,WIHCFEGVTAINFCVALSDYDLVL,2.9
15,WIHCFEGVTAIEFCVALSDYDLVL,4.44
16,MIHCFEGVTAIIFCVALSDYDLVL,2.91
17,FIHCFEGVTAIIFCVALSDYDLVL,2.29
18,NIHCFEGVTAIIFCVALSDYDLVL,2.99
19,IIHCFEGVTAIIFCVALSDYDLVL,4.21
20,DIHCFEGVTAIIFCVALSDYDLVL,3.44

# Variants of: B2
# Assay: as above
# Conditions: c terminus: a fixed tail appended
row,Variant,protein stability index
1,ITYPPGNKEISDKISKEEMVRRLK,4.24
2,ITYPPGLKEISDKISKEEMVRRLK,3.67
3,ITYPPGKKEISDKISKEEMVRRLK,4.55
4,ITYPPGCKEISDKISKEEMVRRLK,4
5,ITYPPGIKEISDKISKEEMVRRLK,4.43
6,ITYPPGQKEISDKISKEEMVRRLK,4.16
7,ITYPPGGKEISDKISKEEMVRRLK,4.01
8,ITYPPGEKEISDKISKEEMVRRLK,3.09
9,ITYPPGRKEISDKISKEEMVRRLK,4.5
10,ITYPPGMKEISDKISKEEMVRRLK,4.06
11,ITYPPGYKEISDKISKEEMVRRLK,3.77
12,ITYPPGAKEISDKISKEEMVRRLK,4.21
13,ITYPPGHKEISDKISKEEMVRRLK,4.04
14,ITYPPGPKEISDKISKEEMVRRLK,3.47
15,ITYPPGWKEISDKISKEEMVRRLK,3.82
16,ITYPPGVFEISDKISKEEMVRRLK,3.15
17,ITYPPGVWEISDKISKEEMVRRLK,3.09
18,ITYPPGVIEISDKISKEEMVRRLK,3.12
19,ITYPPGVPEISDKISKEEMVRRLK,3.69
20,ITYPPGVAEISDKISKEEMVRRLK,4.5
21,ITYPPGVREISDKISKEEMVRRLK,3.99
22,ITYPPGVYEISDKISKEEMVRRLK,3.21
23,ITYPPGVTEISDKISKEEMVRRLK,4.57
24,ITYPPGVQEISDKISKEEMVRRLK,4.29
25,ITYPPGVCEISDKISKEEMVRRLK,3.31

row,Variant,protein stability index
1,ITYPPGVEEISDKISKEEMVRRLK,3.78
2,ITYPPGVMEISDKISKEEMVRRLK,3.46
3,ITYPPGVLEISDKISKEEMVRRLK,3.7
4,ITYPPGVVEISDKISKEEMVRRLK,4.67
5,ITYPPGVNEISDKISKEEMVRRLK,3.83
6,ITYPPGVKGISDKISKEEMVRRLK,4.19
7,ITYPPGVKAISDKISKEEMVRRLK,4.16
8,ITYPPGVKCISDKISKEEMVRRLK,3.13
9,ITYPPGVKDISDKISKEEMVRRLK,3.98
10,ITYPPGVKFISDKISKEEMVRRLK,2.97
11,ITYCPGVKEISDKISKEEMVRRLK,2.81
12,ITYMPGVKEISDKISKEEMVRRLK,3
13,ITYDPGVKEISDKISKEEMVRRLK,3.24
14,ITYNPGVKEISDKISKEEMVRRLK,3.43
15,ITYHPGVKEISDKISKEEMVRRLK,3.91
16,ITYVPGVKEISDKISKEEMVRRLK,2.97
17,ITYLPGVKEISDKISKEEMVRRLK,3.16
18,ITYAPGVKEISDKISKEEMVRRLK,3.44
19,ITYKPGVKEISDKISKEEMVRRLK,3.61
20,ITYQPGVKEISDKISKEEMVRRLK,3.33
21,ITYIPGVKEISDKISKEEMVRRLK,1.94
22,ITYTPGVKEISDKISKEEMVRRLK,3.15
23,ITYRPGVKEISDKISKEEMVRRLK,3.43
24,ITYPKGVKEISDKISKEEMVRRLK,3.74
25,ITYPCGVKEISDKISKEEMVRRLK,3.62

row,Variant,protein stability index
1,ITYPEGVKEISDKISKEEMVRRLK,4.11
2,ITYPRGVKEISDKISKEEMVRRLK,3.81
3,ITYPNGVKEISDKISKEEMVRRLK,4.01
4,ITYPAGVKEISDKISKEEMVRRLK,4.44
5,ITYPVGVKEISDKISKEEMVRRLK,3.16
6,ITYPQGVKEISDKISKEEMVRRLK,4.17
7,ITYPIGVKEISDKISKEEMVRRLK,4.29
8,ITYPGGVKEISDKISKEEMVRRLK,3.67
9,ITYPSGVKEISDKISKEEMVRRLK,4.45
10,ITYPFGVKEISDKISKEEMVRRLK,3.79
11,ITYPYGVKEISDKISKEEMVRRLK,2.12
12,ITYPWGVKEISDKISKEEMVRRLK,3.15
13,ITYPLGVKEISDKISKEEMVRRLK,3.7
14,ITYPHGVKEISDKISKEEMVRRLK,3.67
15,ITYPPIVKEISDKISKEEMVRRLK,3.55
16,ITYPPDVKEISDKISKEEMVRRLK,4.43
17,ITYPPTVKEISDKISKEEMVRRLK,4.31
18,ITYPPHVKEISDKISKEEMVRRLK,4.18
19,ITYPPRVKEISDKISKEEMVRRLK,4
20,ITYPPMVKEISDKISKEEMVRRLK,3.33
21,ITYPPCVKEISDKISKEEMVRRLK,2.19
22,ITYPPEVKEISDKISKEEMVRRLK,5.04
23,ITYPPAVKEISDKISKEEMVRRLK,4.26
24,ITYPPFVKEISDKISKEEMVRRLK,3.31
25,ITYPPVVKEISDKISKEEMVRRLK,3.27

row,Variant,protein stability index
1,ITYPPQVKEISDKISKEEMVRRLK,3.73
2,ITYPPWVKEISDKISKEEMVRRLK,3.3
3,ITYPPLVKEISDKISKEEMVRRLK,3.65
4,ITYPPYVKEISDKISKEEMVRRLK,2.88
5,ITYPPNVKEISDKISKEEMVRRLK,3.54
6,ITYPPKVKEISDKISKEEMVRRLK,4.57
7,ITYPPSVKEISDKISKEEMVRRLK,3.96
8,ITEPPGVKEISDKISKEEMVRRLK,4.47
9,ITQPPGVKEISDKISKEEMVRRLK,4.97
10,ITSPPGVKEISDKISKEEMVRRLK,4.43
11,ITVPPGVKEISDKISKEEMVRRLK,4.44
12,ITIPPGVKEISDKISKEEMVRRLK,3.97
13,ITLPPGVKEISDKISKEEMVRRLK,3.81
14,ITAPPGVKEISDKISKEEMVRRLK,4.48
15,ITRPPGVKEISDKISKEEMVRRLK,4.96
16,ITHPPGVKEISDKISKEEMVRRLK,4.43
17,ITFPPGVKEISDKISKEEMVRRLK,3.85
18,ITCPPGVKEISDKISKEEMVRRLK,3.52
19,ITWPPGVKEISDKISKEEMVRRLK,2.8
20,ITKPPGVKEISDKISKEEMVRRLK,4.64
21,ITTPPGVKEISDKISKEEMVRRLK,3.14
22,YTYPPGVKEISDKISKEEMVRRLK,3.78
23,DTYPPGVKEISDKISKEEMVRRLK,4.99
24,ATYPPGVKEISDKISKEEMVRRLK,5.15
25,NTYPPGVKEISDKISKEEMVRRLK,5.13

row,Variant,protein stability index
1,TTYPPGVKEISDKISKEEMVRRLK,4.96
2,WTYPPGVKEISDKISKEEMVRRLK,4.64
3,GTYPPGVKEISDKISKEEMVRRLK,3.81
4,ETYPPGVKEISDKISKEEMVRRLK,4.74
5,CTYPPGVKEISDKISKEEMVRRLK,4.63
6,STYPPGVKEISDKISKEEMVRRLK,4.78
7,LTYPPGVKEISDKISKEEMVRRLK,3.95
8,VTYPPGVKEISDKISKEEMVRRLK,4.62
9,HTYPPGVKEISDKISKEEMVRRLK,5.04
10,MTYPPGVKEISDKISKEEMVRRLK,4.9
11,PTYPPGVKEISDKISKEEMVRRLK,4.78
12,IGYPPGVKEISDKISKEEMVRRLK,4.08
13,IPYPPGVKEISDKISKEEMVRRLK,3.47
14,IRYPPGVKEISDKISKEEMVRRLK,3.57
15,INYPPGVKEISDKISKEEMVRRLK,3.79
16,IIYPPGVKEISDKISKEEMVRRLK,2.83
17,ILYPPGVKEISDKISKEEMVRRLK,4.14
18,IYYPPGVKEISDKISKEEMVRRLK,3.37
19,IVYPPGVKEISDKISKEEMVRRLK,2.4
20,IWYPPGVKEISDKISKEEMVRRLK,3.45
21,IHYPPGVKEISDKISKEEMVRRLK,3.79
22,IKYPPGVKEISDKISKEEMVRRLK,3.55
23,ISYPPGVKEISDKISKEEMVRRLK,3.72
24,IEYPPGVKEISDKISKEEMVRRLK,3.86
